Laboratory results published in article PMC5656594, “Probing Resistance Mutations in Retroviral Integrases by Direct Measurement of Dolutegravir Fluorescence”.

B1: Fl-PFVCAAT (Fl-DNA#1) (dsDNA)
DNA 1: TATACAAAATTCCATGACAAT
DNA 2: ATTGTCATGGAATTTTGTATA
B2: Fl-DNA#9 (dsDNA)
DNA 1: GGAATCTAGCGGCGCATAGGT
DNA 2: ACCTATGCGCCGCTAGATTCC
B3: Fl-DNA#8 (dsDNA)
DNA 1: GGAATCTAGCGGCGCATCAAT
DNA 2: ATTGATGCGCCGCTAGATTCC
B4: Fl-DNA#13 (processed LTR end) (dsDNA)
DNA 1: TATACAAAATTCCATGACA
DNA 2: ATTGTCATGGAATTTTGTATA

Molecular target: PFV integrase wt (INPFV) (prototype foamy virus, UniProt P14350 752-1143)
Experiment: fluorescence anisotropy; 1 mM Mg2+; stoichiometric IN + DNA; 20 mM Tris pH 7.2, 50 mM NaCl, 1 mM DTT, 10% DMSO, 1 mM (or 10 mM) Mg2+, 25 °C
Conditions: protein: recombinant, tags: His-tag, chain copies: 4

Binder | binding result (label: fluorescein, blunt) | other results
B1 |  | binding result (label: 5'-fluorescein on reactive strand, blunt): binds
B2 | binds | 
B3 | binds | 
B4 |  | binding result (label: fluorescein, 5' overhang 2 nt on non-transferred strand): binds
